In patent US20170342168A1 (Hoffmann-La Roche, published 2017):

B1: IgG1 Fc-region with L234A/L235A/P329G and H310A/H433A/Y436A (other)
chain: DKTHTCPPCPAPEAAGGPSVFLFPPKPKDTLMISRTPEVTCVVVDVSHEDPEVKFNWYVDGVEVHNAKTKPREEQYNSTYRVVSVLTVLAQDWLNGKEYKCKVSNKALGAPIEKTISKAKGQPREPQVYTLPPSRDELTKNQVSLTCLVKGFYPSDIAVEWESNGQPENNYKTTPPVLDSDGSFFLYSKLTVDKSRWQQGNVFSCSVMHEALANHATQKSLSLSPGK
notes: Symmetric mutations in both Fc chains; also called HHY-AAA
B2: IgG1 Fc-region with L234A/L235A/P329G and H310A/H435A (other)
chain: DKTHTCPPCPAPEAAGGPSVFLFPPKPKDTLMISRTPEVTCVVVDVSHEDPEVKFNWYVDGVEVHNAKTKPREEQYNSTYRVVSVLTVLAQDWLNGKEYKCKVSNKALGAPIEKTISKAKGQPREPQVYTLPPSRDELTKNQVSLTCLVKGFYPSDIAVEWESNGQPENNYKTTPPVLDSDGSFFLYSKLTVDKSRWQQGNVFSCSVMHEALHNAYTQKSLSLSPGK
notes: Symmetric mutations in both Fc chains
B3: IgG1 Fc-region with L234A/L235A/P329G and H310A/Y436A (other)
chain: DKTHTCPPCPAPEAAGGPSVFLFPPKPKDTLMISRTPEVTCVVVDVSHEDPEVKFNWYVDGVEVHNAKTKPREEQYNSTYRVVSVLTVLAQDWLNGKEYKCKVSNKALGAPIEKTISKAKGQPREPQVYTLPPSRDELTKNQVSLTCLVKGFYPSDIAVEWESNGQPENNYKTTPPVLDSDGSFFLYSKLTVDKSRWQQGNVFSCSVMHEALHNHATQKSLSLSPGK
notes: as for B2
B4: IgG1 Fc-region with L234A/L235A/P329G and I253A/H310A (other)
chain: DKTHTCPPCPAPEAAGGPSVFLFPPKPKDTLMASRTPEVTCVVVDVSHEDPEVKFNWYVDGVEVHNAKTKPREEQYNSTYRVVSVLTVLAQDWLNGKEYKCKVSNKALGAPIEKTISKAKGQPREPQVYTLPPSRDELTKNQVSLTCLVKGFYPSDIAVEWESNGQPENNYKTTPPVLDSDGSFFLYSKLTVDKSRWQQGNVFSCSVMHEALHNHYTQKSLSLSPGK
notes: as for B2
B5: IgG1 Fc-region with L234A/L235A/P329G and I253A/H310A/H435A (other)
chain: DKTHTCPPCPAPEAAGGPSVFLFPPKPKDTLMASRTPEVTCVVVDVSHEDPEVKFNWYVDGVEVHNAKTKPREEQYNSTYRVVSVLTVLAQDWLNGKEYKCKVSNKALGAPIEKTISKAKGQPREPQVYTLPPSRDELTKNQVSLTCLVKGFYPSDIAVEWESNGQPENNYKTTPPVLDSDGSFFLYSKLTVDKSRWQQGNVFSCSVMHEALHNAYTQKSLSLSPGK
notes: Symmetric mutations in both Fc chains; also called IHH-AAA
B6: IgG1 Fc-region with L234A/L235A/P329G and I253A/H435A (other)
chain: DKTHTCPPCPAPEAAGGPSVFLFPPKPKDTLMASRTPEVTCVVVDVSHEDPEVKFNWYVDGVEVHNAKTKPREEQYNSTYRVVSVLTVLHQDWLNGKEYKCKVSNKALGAPIEKTISKAKGQPREPQVYTLPPSRDELTKNQVSLTCLVKGFYPSDIAVEWESNGQPENNYKTTPPVLDSDGSFFLYSKLTVDKSRWQQGNVFSCSVMHEALHNAYTQKSLSLSPGK
notes: as for B2

Target: T1, human neonatal Fc-receptor (FcRn) (human, UniProt P55899 24-297; P61769 21-119, limits assumed)
T1 construct: also called the receptor
Assay: FcRn affinity chromatography

T1 sequence (P55899 24-297 limits assumed, chain 1 of 2): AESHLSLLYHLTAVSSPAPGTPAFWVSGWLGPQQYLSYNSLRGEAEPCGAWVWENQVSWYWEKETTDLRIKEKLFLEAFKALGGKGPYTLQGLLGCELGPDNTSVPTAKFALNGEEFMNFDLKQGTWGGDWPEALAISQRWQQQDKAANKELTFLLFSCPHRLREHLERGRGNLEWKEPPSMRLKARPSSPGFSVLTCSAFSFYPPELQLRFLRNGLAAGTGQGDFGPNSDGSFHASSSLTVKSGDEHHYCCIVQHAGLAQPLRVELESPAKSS
T1 sequence (P61769 21-119 limits assumed, chain 2 of 2): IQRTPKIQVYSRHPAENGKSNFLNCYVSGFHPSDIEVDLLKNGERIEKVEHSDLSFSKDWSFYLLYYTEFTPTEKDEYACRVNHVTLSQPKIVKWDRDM

Molecule | retention time [min] | binding result
anti-HER2 antibody with symmetric mutation L309H | 45.5 | –
anti-HER2 antibody with symmetric mutation K317H | 46.3 | –
anti-HER2 antibody with symmetric mutation E430H | 46.4 | –
anti-HER2 antibody with symmetric mutation E258H | 45.6 | –
anti-HER2 antibody with symmetric mutation N434H | 52 | –
anti-HER2 antibody with symmetric mutation K290H | 46.2 | –
anti-HER2 antibody with symmetric mutation Q311H | 46.3 | –
anti-HER2 antibody with symmetric mutation R255D | 41.4 | –
anti-HER2 antibody with symmetric mutation D98E | 46.2 | –
anti-HER2 antibody, wild-type | 46.3 | –
anti-HER2 antibody with symmetric mutation K288E | 45.2 | –
anti-HER2 antibody with symmetric mutation T256H | 46 | –
B1 | – | no binding (tested: retention time below 3 minutes)
B2 | – | no binding (tested: retention time below 3 minutes)
B3 | – | no binding (tested: retention time below 3 minutes)
B4 | – | no binding (tested: retention time below 3 minutes)
B5 | – | no binding (tested: retention time below 3 minutes)
B6 | – | no binding (tested: retention time below 3 minutes)
